Measurements from article PMC5570508.
pKd: −log10 of the molar value.

Key:
Assay in all cases: fluorescence polarisation; titration: 5-FAM-labeled protein at 0.5 or 1 μM titrated with unlabeled protein; 20°C; analysis buffer (20 mM NaH2PO4, 50 mM NaCl, 1 mM DTT pH 7); single site binding model
[1] = molecular target: PfEMP1 ATS of variant PFF0845c, fluorescently labeled (H159C) (P. falciparum)
[2] = molecular target: KAHRP K2, fluorescently labeled (C414A/C450A) (P. falciparum)
[3] = molecular target: PfEMP1 Acidic Terminal Segment (ATS) of variant PF08_0141, fluorescently labeled (Q150C) (P. falciparum)

Chain of spectrin α chain domains 12–16 (P02549 1174-1716): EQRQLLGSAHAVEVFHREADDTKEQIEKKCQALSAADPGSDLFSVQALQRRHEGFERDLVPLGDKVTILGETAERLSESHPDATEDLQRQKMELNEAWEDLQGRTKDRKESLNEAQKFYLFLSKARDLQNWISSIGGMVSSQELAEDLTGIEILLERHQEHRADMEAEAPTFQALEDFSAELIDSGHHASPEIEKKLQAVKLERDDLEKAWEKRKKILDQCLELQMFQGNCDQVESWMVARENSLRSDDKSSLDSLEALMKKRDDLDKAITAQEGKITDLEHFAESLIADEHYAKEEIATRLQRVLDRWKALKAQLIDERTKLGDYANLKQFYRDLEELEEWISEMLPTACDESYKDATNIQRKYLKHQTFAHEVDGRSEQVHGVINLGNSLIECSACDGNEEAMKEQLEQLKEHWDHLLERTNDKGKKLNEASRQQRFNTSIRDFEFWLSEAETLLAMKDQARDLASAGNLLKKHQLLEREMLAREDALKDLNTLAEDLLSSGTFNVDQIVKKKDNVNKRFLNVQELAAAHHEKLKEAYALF
Chain of spectrin α chain domain 17 (P02549 1704-1828): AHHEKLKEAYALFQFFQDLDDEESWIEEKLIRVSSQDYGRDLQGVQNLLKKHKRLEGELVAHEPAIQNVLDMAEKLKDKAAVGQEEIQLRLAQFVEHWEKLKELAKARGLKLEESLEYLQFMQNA
Chain of α spectrin construct spanning domains 17 to the protein C-terminus (P02549 1704-2395): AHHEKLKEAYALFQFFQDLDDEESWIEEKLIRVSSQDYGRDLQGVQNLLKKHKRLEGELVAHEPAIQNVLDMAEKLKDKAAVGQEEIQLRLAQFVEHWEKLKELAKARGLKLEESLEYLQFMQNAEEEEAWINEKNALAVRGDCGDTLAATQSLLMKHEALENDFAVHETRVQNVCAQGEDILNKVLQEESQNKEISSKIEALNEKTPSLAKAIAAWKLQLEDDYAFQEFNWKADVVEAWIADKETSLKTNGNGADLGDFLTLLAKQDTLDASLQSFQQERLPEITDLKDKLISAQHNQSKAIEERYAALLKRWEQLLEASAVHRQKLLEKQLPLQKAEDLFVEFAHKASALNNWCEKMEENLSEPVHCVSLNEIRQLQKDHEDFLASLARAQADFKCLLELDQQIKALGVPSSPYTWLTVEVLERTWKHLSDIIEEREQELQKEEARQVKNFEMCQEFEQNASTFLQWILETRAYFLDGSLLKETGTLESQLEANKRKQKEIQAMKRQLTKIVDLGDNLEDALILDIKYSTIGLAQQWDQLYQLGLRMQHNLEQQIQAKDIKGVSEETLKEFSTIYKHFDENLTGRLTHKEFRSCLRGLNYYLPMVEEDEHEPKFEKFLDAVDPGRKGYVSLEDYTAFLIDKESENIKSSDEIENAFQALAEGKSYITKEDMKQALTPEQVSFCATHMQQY
Chain of spectrin β chain domains 10–14 (P11277 1272-1804): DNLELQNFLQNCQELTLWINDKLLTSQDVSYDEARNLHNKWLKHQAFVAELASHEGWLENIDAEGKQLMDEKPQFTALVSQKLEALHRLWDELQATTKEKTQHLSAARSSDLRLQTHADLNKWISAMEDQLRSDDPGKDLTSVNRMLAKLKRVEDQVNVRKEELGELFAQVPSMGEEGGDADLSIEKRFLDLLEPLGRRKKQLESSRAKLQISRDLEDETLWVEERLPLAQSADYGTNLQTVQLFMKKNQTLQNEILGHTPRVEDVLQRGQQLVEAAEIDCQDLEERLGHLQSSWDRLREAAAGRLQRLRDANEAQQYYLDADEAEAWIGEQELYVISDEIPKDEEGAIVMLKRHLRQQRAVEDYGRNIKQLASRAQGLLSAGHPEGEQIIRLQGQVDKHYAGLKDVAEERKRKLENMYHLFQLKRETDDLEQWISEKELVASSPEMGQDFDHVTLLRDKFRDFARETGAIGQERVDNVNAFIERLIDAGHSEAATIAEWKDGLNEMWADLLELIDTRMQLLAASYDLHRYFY

## spectrin α chain domain 17 (from UniProt P02549 1704-1828) (domain or fragment)
[1]
  pKd: 4.62

## spectrin α chain domains 12–16 (from UniProt P02549 1174-1716) (domain or fragment)
[2]
  pKd: 3.80

## spectrin β chain domains 10–14 (from UniProt P11277 1272-1804) (domain or fragment)
[2]
  pKd: 4.30

## α spectrin construct spanning domains 17 to the protein C-terminus (from UniProt P02549 1704-2395) (domain or fragment)
[3]
  pKd: 4.23
